For the test, the target named is cyno ST2L (cyno). The test is described as follows: affinity table, cyno ST2L; method not stated.

Our source for the koff values is patent US20190225682A1.

B1: STLM107 (antibody, from another filing, V domains shown)
VH: EVQLLESGGGLVQPGGSLRLSCAASGFTFSDYAMFWVRQAPGKGLEWVSAIEGEGGETNYADSVKGRFTISRDNSKNTLYLQMNSLRAEDTAVYYCARDPWSTEGSFFVLDYWGQGTLVTVSS
VL: EIVLTQSPATLSLSPGERATLSCRASQSVDDDLAWYQQKPGQAPRLLIYDASNRATGIPARFSGSGSGTDFTLTISSLEPEDFAVYYCQQYIGAPITFGQGTKVEIK
The koff is the rate constant with which the complex falls apart. The molecule B1 had a koff of 0.00065 s⁻¹.
